These are literature values, as cited in article PMC3462298.

One data set deals with TRTK-12 (UniProt P52907). Briefly: fluorescence competition.
In data set [1] the target is TAMRA-TRTK-12 (CapZ peptide) (Homo sapiens). The experiment in a line: fluorescence polarization. Background: Fluorescence polarisation rises when a labelled molecule tumbles more slowly, as on binding a larger partner.

Consider S100B (from UniProt P04631), for which the results for the Kd (with TRTK-12; in data set [1]) were 2900 nM and 1200 nM, respectively.
